Source: patent US6440409

Experiments:
[1] = target: T1, translation elongation factor 2 (EF-2), toxin-resistant form without diphthamide (dph1::TRP1 strains)
T1 chain: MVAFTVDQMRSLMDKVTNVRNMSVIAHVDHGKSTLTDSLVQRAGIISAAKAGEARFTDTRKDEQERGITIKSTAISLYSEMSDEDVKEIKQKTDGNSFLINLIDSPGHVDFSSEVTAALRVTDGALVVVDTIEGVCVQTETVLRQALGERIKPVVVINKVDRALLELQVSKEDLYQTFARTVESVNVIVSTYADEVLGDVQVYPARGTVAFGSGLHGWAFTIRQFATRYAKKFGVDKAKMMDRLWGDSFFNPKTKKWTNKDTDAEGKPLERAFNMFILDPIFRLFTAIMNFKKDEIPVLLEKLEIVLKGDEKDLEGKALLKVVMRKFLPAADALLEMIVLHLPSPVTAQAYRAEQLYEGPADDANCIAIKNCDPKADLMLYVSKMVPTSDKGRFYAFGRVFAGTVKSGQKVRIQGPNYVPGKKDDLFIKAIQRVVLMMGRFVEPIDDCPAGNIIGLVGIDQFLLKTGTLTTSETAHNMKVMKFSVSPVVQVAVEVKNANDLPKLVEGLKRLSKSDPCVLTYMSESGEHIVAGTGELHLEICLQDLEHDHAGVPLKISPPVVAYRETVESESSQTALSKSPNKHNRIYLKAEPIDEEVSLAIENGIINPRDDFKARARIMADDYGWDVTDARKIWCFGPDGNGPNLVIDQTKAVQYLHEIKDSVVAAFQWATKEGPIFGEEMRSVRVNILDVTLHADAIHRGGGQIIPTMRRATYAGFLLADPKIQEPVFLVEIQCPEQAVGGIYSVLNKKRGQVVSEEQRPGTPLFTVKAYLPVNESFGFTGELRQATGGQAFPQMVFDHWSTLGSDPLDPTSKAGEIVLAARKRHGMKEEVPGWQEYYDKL

[2] = target: T2, translation elongation factor 2 (EF-2), toxin-sensitive form with diphthamide
T2 chain: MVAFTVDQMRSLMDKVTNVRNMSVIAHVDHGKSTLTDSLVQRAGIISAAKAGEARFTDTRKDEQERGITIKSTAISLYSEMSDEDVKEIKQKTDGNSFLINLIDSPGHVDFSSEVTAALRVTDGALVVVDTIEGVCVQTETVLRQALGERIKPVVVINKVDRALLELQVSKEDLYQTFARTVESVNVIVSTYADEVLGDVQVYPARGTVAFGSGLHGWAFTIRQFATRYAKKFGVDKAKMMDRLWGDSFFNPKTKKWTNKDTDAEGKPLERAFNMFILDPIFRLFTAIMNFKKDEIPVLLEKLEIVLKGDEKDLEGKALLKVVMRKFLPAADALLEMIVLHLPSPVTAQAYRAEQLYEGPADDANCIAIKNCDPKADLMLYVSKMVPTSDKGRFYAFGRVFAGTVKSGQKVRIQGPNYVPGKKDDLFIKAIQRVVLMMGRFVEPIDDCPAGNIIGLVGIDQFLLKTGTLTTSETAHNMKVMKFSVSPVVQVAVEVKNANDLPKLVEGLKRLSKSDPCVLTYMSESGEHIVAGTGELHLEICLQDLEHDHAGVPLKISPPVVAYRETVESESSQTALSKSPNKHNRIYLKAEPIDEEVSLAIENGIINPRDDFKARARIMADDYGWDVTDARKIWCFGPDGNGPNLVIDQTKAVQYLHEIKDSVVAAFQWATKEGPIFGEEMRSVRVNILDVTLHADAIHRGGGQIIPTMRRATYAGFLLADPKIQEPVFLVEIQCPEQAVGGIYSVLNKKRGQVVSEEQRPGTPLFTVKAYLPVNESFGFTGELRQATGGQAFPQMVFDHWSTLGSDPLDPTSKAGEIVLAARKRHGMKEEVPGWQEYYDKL

B1: diphtheria toxin F2 fragment (protein)
chain: GADDVVDSSKSFVMENFSSYHGTKPGYVDSIQKGIQKPKSGTQGNYDDDWKGFYSTDNKYDAAGYSVDNENPLSGKAGGVVKVTYPGLTKVLALKVDNAETIKKELGLSLTEPLMEQVGTEEFIKRFGDGASRVVLSLPFAEGSSSVEYINNWEQAKALSVELEINFETRGKRGQDAMYEYMAQACAGNRVRR
Question: B1 was tested. Which “viable diploids after mating of the killer strain (TMY401 with pTM147) with the diphtheria toxin-resistant strain TMY403 (dph1::TRP1), selected on SC-Ura, His” value [1] did it give?
Answer: healthy diploids are readily obtained

Question: And the “viable diploids after mating of the killer strain (TMY401 with pTM147) with the target strain (TMY407 with pRS426), selected on SC-Ura, His” value [2]?
Answer: very few viable diploids appear at the intersection of the killer and target strains
